Test results reported in US20020146805.

Test system: PFEK-protease T-6xHIS zymogen
Sequence (chain, as listed by the source): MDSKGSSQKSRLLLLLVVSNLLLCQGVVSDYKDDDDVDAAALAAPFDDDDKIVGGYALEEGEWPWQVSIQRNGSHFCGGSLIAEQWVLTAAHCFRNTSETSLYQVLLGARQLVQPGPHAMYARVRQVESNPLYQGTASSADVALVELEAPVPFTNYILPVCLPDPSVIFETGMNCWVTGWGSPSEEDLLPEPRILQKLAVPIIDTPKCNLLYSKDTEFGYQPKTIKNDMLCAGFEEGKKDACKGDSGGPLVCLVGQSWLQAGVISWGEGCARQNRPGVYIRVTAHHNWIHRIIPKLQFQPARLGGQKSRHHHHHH

enterokinase
cleavage of the zymogen (SDS-PAGE and anti-FLAG Western blot): quantitative cleavage of the expressed and purified zymogen to generate the processed and activated protease
